# Source: patent publication US20230416329A1 (INSTITUTE OF MATERIA MEDICA CHINESE ACADEMY OF MEDICAL …, published 2023)
# Bridge positions count the residues as written; N and C are the ends. Ends that are not written are not given here.
# Assays:
# [1] = target: porcine pancreatic elastase (porcine, UniProt P00772 27-266); test: elastase inhibition, AAApNA substrate
# Method: (§1) The substrates N-succinyl-Ala-Ala-Pro-Phe-p-nitroaniline (AAPFpNA), Nα—Benzoyl-L-arginine-4-nitroaniline hydrochloride (BApNA) and N-succinyl-[…] (AAApNA) are used in competitive binding reaction to determine the inhibitory activities against α-chymotrypsin, bovine trypsin, and porcine pancreatic elastase, respectively. Experiments for α-chymotrypsin and bovine trypsin inhibition were measured in 20 mM CaCl₂, 50 mM Tris-HCl buffer (pH 7.8), and that for porcine elastase inhibition was measured in 50 mM Tris-HCl buffer (pH 8.0). The concentration of the peptide was measured using optical density (OD) at 280 nm. The Michaelis constant (Kₘ) of the enzyme hydrolysis substrate is calculated from the initial rate of substrate hydrolysis at 405 nm. The absorbance value of the substrate was measured at 405 nm after complete hydrolysis. All data were processed using nonlinear regression.
# (1) Added a total 190 μL of different concentrations of peptides (ECs) against elastase and reaction buffer (20 mM CaCl₂, 50 mM Tris-HCl buffer (pH 8.0)) into the pre-cold 96 well plate, followed by preheating at 37° C. for 5 min and centrifugated at 500 rpm for 1 min and allowed to stand for 4 minutes. […] Finally, added 2 μL of 100 mM AAApNA, and mixed by centrifugation at 500 rpm for 1 min. The plate was incubated at 37° C. for 60 min, and the absorbance value at 405 nm was measured. […]
# bovine trypsin [2] = target: T1, bovine trypsin (bovine, UniProt P00760 24-246); test: trypsin (50 nM) BApNA hydrolysis, OD405; peptide at 0.98 µM
# Method: as §1
# (§2) (1) Added a total 190 μL of reaction buffer (20 mM CaCl₂ and 50 mM Tris-HCl, pH 7.8) along with different concentrations of anti-trypsin peptides (BTs) into the pre-cooled 96-well plate, followed by preheating at 37° C., and spined down at 500 rpm for 5 min. Next added 10 μL of 1 μM trypsin, incubated at 37° C., and then spined down at 500 rpm for 10 min. Finally, added 5 μL of 50 mM BApNA, and mixed by centrifugation at 500 rpm for 1 min. […] The experiment was performed in triplicate. The blank control only contained the reaction buffer and the substrate as the minimum absorption value (Min OD_{405 nm}). The negative control only contained the reaction buffer, the enzyme and the substrate as the maximum absorption value (Max OD_{405 nm}). […] (2) In the reaction system of 205 μL, the final concentrations of trypsin and BApNA were 50 nM and 1.22 mM, respectively. [0456] (3) Data statistics
# bovine trypsin [3] = target: T1, bovine trypsin; test: as above; remark: listed apart in the source
# bovine trypsin [4] = target: T1, bovine trypsin; test: trypsin (50 nM) BApNA hydrolysis, OD405; peptide at 0.0098 µM
# Method: as §1, §2
# bovine trypsin [5] = target: T1, bovine trypsin; test: trypsin (50 nM) BApNA hydrolysis, OD405; peptide at 0.0488 µM
# Method: as §1, §2
# bovine trypsin [6] = target: T1, bovine trypsin; test: trypsin (50 nM) BApNA hydrolysis, OD405; peptide at 0.0098 µM; remark: listed apart in the source
# bovine trypsin [7] = target: T1, bovine trypsin; test: trypsin (50 nM) BApNA hydrolysis, OD405; peptide at 0.0488 µM; remark: listed apart in the source
# bovine trypsin [8] = target: T1, bovine trypsin; test: trypsin (50 nM) BApNA hydrolysis, OD405; peptide at 0.00098 µM
# bovine trypsin [9] = target: T1, bovine trypsin; test: as above; remark: listed apart in the source
# bovine trypsin [10] = target: T1, bovine trypsin; test: trypsin (50 nM) BApNA hydrolysis, OD405; peptide at 9.76 µM
# Method: as §1, §2
# bovine trypsin [11] = target: T1, bovine trypsin; test: trypsin (50 nM) BApNA hydrolysis, OD405; peptide at 0.098 µM
# Method: as §1, §2
# bovine trypsin [12] = target: T1, bovine trypsin; test: trypsin (50 nM) BApNA hydrolysis, OD405; peptide at 97.56 µM
# Method: as §1, §2
# bovine trypsin [13] = target: T1, bovine trypsin; test: trypsin (50 nM) BApNA hydrolysis, OD405; peptide at 0.000098 µM
# Method: as §1, §2
# bovine trypsin [14] = target: T1, bovine trypsin; test: trypsin (50 nM) BApNA hydrolysis, OD405; peptide at 9.76 µM; remark: listed apart in the source
# bovine trypsin [15] = target: T1, bovine trypsin; test: trypsin (50 nM) BApNA hydrolysis, OD405; peptide at 0.098 µM; remark: listed apart in the source
# bovine trypsin [16] = target: T1, bovine trypsin; test: trypsin (50 nM) BApNA hydrolysis, OD405; peptide at 0.0780 µM
# Method: as §1
# (1) Added a total 190 μL of reaction buffer (20 mM CaCl₂ and 50 mM Tris-HCl, pH 7.8) along with different concentrations of anti-trypsin peptides (BTs) into the pre-cooled 96-well plate, followed by preheating at 37° C., and spined down at 500 rpm for 5 min. Next added 10 μL of 1 μM trypsin, incubated at 37° C., and then spined down at 500 rpm for 10 min. Finally, added 5 μL of 50 mM BApNA, and mixed by centrifugation at 500 rpm for 1 min. […] The experiment was performed in triplicate. […]
# T1 sequence (P00760 24-246): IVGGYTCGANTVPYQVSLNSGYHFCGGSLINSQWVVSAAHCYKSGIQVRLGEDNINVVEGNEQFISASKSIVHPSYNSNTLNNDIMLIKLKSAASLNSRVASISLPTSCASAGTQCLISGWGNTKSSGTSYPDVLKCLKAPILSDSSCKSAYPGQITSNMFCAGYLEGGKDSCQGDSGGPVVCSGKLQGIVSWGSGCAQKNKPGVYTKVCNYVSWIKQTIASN
# Sequence of porcine pancreatic elastase (P00772 27-266 limits assumed): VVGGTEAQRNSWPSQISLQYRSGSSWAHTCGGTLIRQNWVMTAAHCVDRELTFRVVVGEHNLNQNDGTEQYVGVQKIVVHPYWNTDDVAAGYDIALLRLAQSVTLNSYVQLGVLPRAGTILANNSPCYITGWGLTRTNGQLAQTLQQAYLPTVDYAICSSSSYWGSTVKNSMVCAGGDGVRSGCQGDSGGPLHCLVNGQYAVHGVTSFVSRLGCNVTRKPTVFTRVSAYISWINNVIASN
binding result [1],Residual trypsin activity (%) (bovine trypsin [2]),Residual trypsin activity (%) (bovine trypsin [3]),Residual trypsin activity (%) (bovine trypsin [4]),Residual trypsin activity (%) (bovine trypsin [5]),Residual trypsin activity (%) (bovine trypsin [6]),Residual trypsin activity (%) (bovine trypsin [7]),Residual trypsin activity (%) (bovine trypsin [8]),Residual trypsin activity (%) (bovine trypsin [9]),Residual trypsin activity (%) (bovine trypsin [10]),Residual trypsin activity (%) (bovine trypsin [11]),Residual trypsin activity (%) (bovine trypsin [12]),Residual trypsin activity (%) (bovine trypsin [13]),Residual trypsin activity (%) (bovine trypsin [14]),Residual trypsin activity (%) (bovine trypsin [15]),Residual trypsin activity (%) (bovine trypsin [16]),Binder
binds,–,–,–,–,–,–,–,–,–,–,–,–,–,–,–,CGLATLSIPPICQ (disulfide 1-12 (inferred)) [EC7]
–,49.7%,49.7%,99.6%,–,99.6%,–,101%,101%,1%,100%,0.2%,–,1%,100%,–,"CGTATKSIPPICF (disulfide 1-12 (inferred), synthetic) [BT25]"
–,–,0.1%,–,–,102%,49.6%,–,104%,–,–,–,–,0.1%,1.5%,–,"CARATKSIPPICF (disulfide 1-12 (inferred), synthetic) [BT67]"
–,0.2%,–,108%,57.4%,–,–,105%,–,0%,5.6%,0.1%,103%,–,–,39%,"CGRSTKSIPPICF (disulfide 1-12 (inferred), synthetic) [BT47]"
–,0.1%,–,99.9%,65.8%,–,–,99.2%,–,-0.1%,7.2%,–,101%,–,–,24.3%,"CGRQTKSIPPICF (disulfide 1-12 (inferred), synthetic) [BT54]"
–,94.5%,94.5%,99.5%,–,99.5%,–,–,–,0.4%,100%,0.1%,–,0.4%,100%,–,"CGRAAKSIPPICF (disulfide 1-12 (inferred), synthetic) [BT26]"

# Continued, binder first:
Binder,binding result [1],Residual trypsin activity (%) (bovine trypsin [2]),Residual trypsin activity (%) (bovine trypsin [3]),Residual trypsin activity (%) (bovine trypsin [4]),Residual trypsin activity (%) (bovine trypsin [5]),Residual trypsin activity (%) (bovine trypsin [6]),Residual trypsin activity (%) (bovine trypsin [7]),Residual trypsin activity (%) (bovine trypsin [8]),Residual trypsin activity (%) (bovine trypsin [9]),Residual trypsin activity (%) (bovine trypsin [10]),Residual trypsin activity (%) (bovine trypsin [11]),Residual trypsin activity (%) (bovine trypsin [12]),Residual trypsin activity (%) (bovine trypsin [13]),Residual trypsin activity (%) (bovine trypsin [14]),Residual trypsin activity (%) (bovine trypsin [15]),Residual trypsin activity (%) (bovine trypsin [16])
LCTLSIPPQCY (disulfide 2-10 (inferred)) [EC2],binds,–,–,–,–,–,–,–,–,–,–,–,–,–,–,–
"CGRATKSIPPICF (disulfide 1-12 (inferred), synthetic) [BT9]",–,-0.4%,-0.4%,94.3%,68.1%,94.3%,68.1%,100%,100%,–,–,–,–,–,–,–
"CGRYTKSIPPICF (disulfide 1-12 (inferred), synthetic) [BT53]",–,0.5%,–,106%,87.4%,–,–,109%,–,0.2%,63%,0%,104%,–,–,–
"CPRATKSIPPICF (disulfide 1-12 (inferred), synthetic) [BT66]",–,–,0.1%,–,–,106%,66.8%,–,105%,–,–,–,–,0.1%,4.8%,–
